The results in this text go back to paper PMC3348139.

Assay [1] concerns the target R312H human cardiac actin (R312H ACTC) (human). Put plainly: pyrene-actin polymerisation assay (critical concentration); actin in G-buffer mixed with 2.5% pyrene-labeled alpha-skeletal actin; polymerization buffer 25 mM Tris pH 8.0, 50 mM KCl, 1 mM EGTA, 2 mM MgCl2, 0.1 mM ATP; Cc is the x-intercept of the change in pyrene fluorescence against actin concentration; monomer to filament.

The target in the next assay is DNase-I (UniProt P00639).
Assay [2] addresses A230V human cardiac actin (A230V ACTC) (human). Put plainly: pyrene-actin polymerisation assay (critical concentration); actin in G-buffer mixed with 2.5% pyrene-labeled alpha-skeletal actin; polymerization buffer 25 mM Tris pH 8.0, 50 mM KCl, 1 mM EGTA, 2 mM MgCl2, 0.1 mM ATP; Cc is the x-intercept of the change in pyrene fluorescence against actin concentration; monomer to filament.

Assay [3] concerns the target M305L human cardiac actin (M305L ACTC) (human). The assay is described as above.
The target of assay [4] is wildtype human cardiac actin (WT ACTC) (human) (UniProt P68032). The description is as above.
Assay [5] addresses Y166C human cardiac actin (Y166C ACTC) (human). Described as above.
In assay [6] the target is E99K human cardiac actin (E99K ACTC) (human). The assay is described as above.
Assay [7] concerns the target A331P human cardiac actin (A331P ACTC) (human). The assay is described as above.
For assay [8], the target named is E361G human cardiac actin (E361G ACTC) (human). The assay is described as above.

Sequence of DNase-I (P00639 23-282): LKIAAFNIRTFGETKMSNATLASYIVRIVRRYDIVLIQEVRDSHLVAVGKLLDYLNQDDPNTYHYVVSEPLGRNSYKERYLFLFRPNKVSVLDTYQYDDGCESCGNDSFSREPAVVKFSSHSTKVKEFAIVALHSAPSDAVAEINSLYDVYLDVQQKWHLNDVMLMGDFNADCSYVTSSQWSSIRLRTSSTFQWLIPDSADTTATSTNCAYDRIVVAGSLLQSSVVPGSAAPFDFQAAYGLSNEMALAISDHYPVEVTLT

For “R312H human cardiac actin (R312H ACTC) (natural protein)”, the Cc (critical concentration of polymerisation) in assay [1] was 4.75 µM. Besides, in the assay with DNase-I, the IC50 of inhibition of DNase-I activity (A260 with salmon sperm DNA; 0 to 100 nM ACTC, 15.4 nM DNase-I); the value rose on later days after purification is 36.7 nM.

As to “A230V human cardiac actin (A230V ACTC) (natural protein)”, in assay [2], the Cc (critical concentration of polymerisation) was found to be 2.11 µM. This substance also returned an IC50 of inhibition of DNase-I activity (A260 with salmon sperm DNA; 0 to 100 nM ACTC, 15.4 nM DNase-I) with DNase-I of 15.3 nM.

In assay [3], “M305L human cardiac actin (M305L ACTC) (natural protein)” showed a Cc (critical concentration of polymerisation) of 2.21 µM. In the assay with DNase-I, this substance had an IC50 of inhibition of DNase-I activity (A260 with salmon sperm DNA; 0 to 100 nM ACTC, 15.4 nM DNase-I) of 17 nM.

“wildtype human cardiac actin (WT ACTC) (from UniProt P68032 1-377) (natural protein)” came in with a Cc (critical concentration of polymerisation) in [4] of 0.28 µM. This substance showed an IC50 of inhibition of DNase-I activity (A260 with salmon sperm DNA; 0 to 100 nM ACTC, 15.4 nM DNase-I) with DNase-I of 13.2 nM.

For “Y166C human cardiac actin (Y166C ACTC) (natural protein)”, in assay [5], the Cc (critical concentration of polymerisation) was 2.67 µM. The IC50 of inhibition of DNase-I activity (A260 with salmon sperm DNA; 0 to 100 nM ACTC, 15.4 nM DNase-I) with DNase-I is 24.6 nM.

The substance “E99K human cardiac actin (E99K ACTC) (natural protein)” had a Cc (critical concentration of polymerisation) in assay [6] of 1.67 µM. Moreover, the IC50 of inhibition of DNase-I activity (A260 with salmon sperm DNA; 0 to 100 nM ACTC, 15.4 nM DNase-I) with DNase-I was found to be 25.7 nM.

The substance “A331P human cardiac actin (A331P ACTC) (natural protein)” showed a Cc (critical concentration of polymerisation) in assay [7] of 2.95 µM. In the assay with DNase-I, this substance gave an IC50 of inhibition of DNase-I activity (A260 with salmon sperm DNA; 0 to 100 nM ACTC, 15.4 nM DNase-I) of 26 nM.

As for “E361G human cardiac actin (E361G ACTC) (natural protein)”, the Cc (critical concentration of polymerisation) in [8] was 0.58 µM. This substance also returned an IC50 of inhibition of DNase-I activity (A260 with salmon sperm DNA; 0 to 100 nM ACTC, 15.4 nM DNase-I) with DNase-I of 16.8 nM.
